Assay results published in patent US20210261676A1 (YINNUOLAI BIOTECH, published 2021).

Biological target: T1, B-cell activating factor (BAFF) receptor (human, UniProt Q96RJ3 7-71, limits assumed)
T1 construct: also called TNFRSF13C; BLyS receptor 3
T1 sequence: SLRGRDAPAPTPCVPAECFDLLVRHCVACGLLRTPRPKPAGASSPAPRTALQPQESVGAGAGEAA
Experiment: method not stated; column heads (Kdis, Full X^2, Full R^2) look like bio-layer interferometry output

B1: H90-5 anti-BAFF receptor monoclonal antibody (antibody, V domains shown)
VH: EVQLQESGPGLVKPSQTLSLTCTVSGDSITSGYWNWIRQHPGKGLEYIGYISYSGSTYYNPSLKSRVTISRDTSKNQYSLKLSSVTAADTAVYYCASPNYPFYAMDYWGQGTLVTVSS
VL: DIVLTQSPATLSLSPGERATLSCRASESVDNYGISFMNWFQQKPGQAPRLLIYAASNRATGIPARFSGSGSGTDFTLTISSLEPEDFAVYYCQQSKEVPWTFGGGTKVEIKR
notes: Humanized form of C90; also called H90-5 mAb
  Kd: 3.4 nM
  koff: 0.0034 s⁻¹
  kon: 990000 M⁻¹ s⁻¹

B2: H90-11 anti-BAFF receptor monoclonal antibody (antibody, V domains shown)
VH: EVQLQESGPGLVKPSQTLSLTCTVSGDSITSGYWNWIRQHPGKGLEYIGYISYSGSTYYNPSLKSRVTISRDTSKNQYSLKLSSVTAADTAVYYCASPNYPFYAMDYWGQGTLVTVSS
VL: DIQMTQSPDSLAVSLGERATINCKSSQSVLYSSNNKNYLAWYQQKPGQPPKLLIYWASIRESGVPDRFSGSGSGTDFTLTISSLQPEDFATYYCQQSYSTPWTFGQGTKLEIKR
notes: same heavy chain variable region as H90-5; also called H90-11 mAb
  Kd: 0.95 nM
  koff: 0.00082 s⁻¹
  kon: 860000 M⁻¹ s⁻¹
